{"source": "paper PMC12703665", "about": "“A Trifunctional, Rare-Earth Theranostic Chelator Platform to Enable Diagnostic Nuclear Imaging, Surgical Resection, and Radiotherapy” (Journal of the American Chemical Society, 2025)", "key": {"[1]": {"tested_on": "PC-3 PIP/flu (PSMA+/PSMA–) tumor xenografts", "assay": "in vivo", "conditions": "2 h post injection, n = 4, listed as [161Tb]TbIII-pepa-pic2-C-Hex-KuE", "description": "(§1) For in vivo evaluation, athymic nude mice-bearing bilateral PC-3 PIP/flu (PSMA^+/PSMA^–) tumor xenografts were used (Figure ).\n(§2) 5.1.1 Urine metabolite analysis\n(§3) Metabolite analysis was performed by analyzing aliquots of 100 µL of mouse urine collected during biodistribution studies. If the collected urine volume was less than 100 µL, 1X DPBS was added in order to bring it up to a final volume of 100 µL. In cases where the radioactivity present in urine decayed to levels too low for detection by HPLC, fractions eluted from the radioHPLC were collected every 30 seconds, and the amount of radioactivity was estimated via gamma counting (Hidex Automatic Gamma Counter). The chromatogram was then reconstructed by plotting the recorded counts per minute recorded for each fraction […]\n(§4) 5.2 In vitro optical imaging\n(§5) Tumor tissues were harvested from male, nude, athymic mice bearing xenografts from PC3-PIP (PSMA+) and PC3-flu (PSMA-) were fixed for (24) hours in 10% neutral buffered formalin, processed and embedded into paraffin blocks. Tissues were sectioned at 5µm, dried and then deparaffinized with a 25-minute oven bake at 60°C, followed by a series of xylene and alcohol washes\n(§6) Antigens were prepared in PerkinElmer’s 1X Antigen Retrieval pH 9.0 (AR900250ML) for 8 minutes in the microwave. Tissue sections were blocked with 1X Antibody Diluent/Block buffer (Akoya).\n(§7) Ab-PSMA, natEu-pepa-pic2-C-Hex-KuE and DAPI staining.\n(§8) Tissues were stained with Ab-PSMA (Ventana 760-6076; 11.75 µg/mL; 100uL per slide) for 30 minutes at room temperature. Slides were washed with TBS-T and secondary goat anti-rabbit was applied for 10 minutes at room temperature. Slides were washed with TBS-T and Akoya’s Opal dye 520 was applied for 10 minutes at room temperature. Antigen retrieval and blocking steps were performed again.\n(§9) An aqueous solution of natEu-pepa-pic2-C-Hex-KuE (10 µM) was diluted at 1:1 with 1X Diluent/Block (Akoya) and 100 µL were applied per slide for 2 hours at room temperature. For DAPI staining, DAPI working solution (Akoya) was applied for 10 minutes at room temperature before mounting with ProLong™ Gold Antifade Mountant. Slides were imaged by Nuance Multispectral Scope at 20x objective.\n(§10) 5.3 In vivo biodistribution in PSMA +/- mice models, PET-CT and SPECT imaging.\n(§11) Male, nude, athymic mice were purchased from Jackson Laboratory. Ten days preceding the imaging study, mice were implanted with 1 × 10^6 cells (PC-3 PIP on the right, PC-3 flu on the left shoulder) in 100 µL of a 1:2 mixture of DPBS 1X/matrigel matrix subcutaneously.\n(§12) A solution of 100 µL of labeled radiotracer was administered via tail vein injection into 8–10-week-old male nude mice (n = 4 per cohort) bearing PSMA+/- tumors.\n(§13) For biodistribution studies, mice were euthanized at 2 hours (n=4) post-injection of the radio tracer. Organs were extracted, intestinal content removed, and activity assessed via a gamma counter. Biodistribution analysis values are represented as percentage of injected dose per gram of organ weight (% ID/g)."}, "in vivo": {"assay": "in vivo", "conditions": "male, athymic nude, mouse, intravenous, total radioactivity, 2 h post injection, n = 4", "description": "as §1, §2, §3, §4, §5, §6, §7, §8, §9, §10, §11, §12, §13"}, "[2]": {"tested_on": "PC-3 PIP/flu (PSMA+/PSMA–) tumor xenografts", "conditions": "biodistribution 2 h p.i. and SPECT 0.5-25 h", "method": "Following radiochemical labeling and formulation in PBS, [^177Lu]­Lu-pepa-pic2-C-hex-KuE and [^161Tb]­Tb-pepa-pic2-C-hex-KuE were evaluated by single point biodistribution (2 h p.i.) and serial SPECT imaging at 0.5, 1, 1.5, 4, and 25 h in direct comparison with the clinically validated radiopharmaceutical [^177Lu]­Lu-PSMA-617 as well as [^161Tb]­Tb-PSMA-617 (Figure d–e, Supporting Information, Figures S52–S55, and Table S2).\nRepresentative PET-CT (Y-86) or SPECT (Lu-177, Tb-161) images were acquired at different time points starting as early as 0.5 h and up to 25-hours post administration of radiotracer. Mice were initially anesthetized with isoflurane gas at 4% isoflurane in oxygen and maintained during scans at 2.0%. PET-CT and SPECT images were normalized to units of percentage of injected dose per cubic centimeter and presented as maximum intensity projected scan (MIPS) images.\nPET-CT scans were acquired in a Siemens Inveon Hybrid MicroPET/CT Scanner (Siemens Medical Solutions USA, Inc., Knoxville, TN), and image processing and region of interest (ROI) analysis conducted using the Inveon Research Workstation analysis software. ROI analysis of the PET/CT images was used to estimate tracer uptake in major organs or tissues, and quantitative results are given as percentage of injected dose per cubic centimeter (%ID/cc). […]"}, "[3]": {"conditions": "277 nm; ref 11 (SI); cited from earlier work"}}}
{"molecule": "COCCOCCOCCOc1ccc(C#Cc2cc(CN3CCN(Cc4cccc(C(=O)O)n4)CCN(Cc4cc(SC[C@H](N)C(=O)NCCCCCC(=O)NCCCC[C@H](NC(=O)N[C@@H](CCC(=O)O)C(=O)O)C(=O)O)cc(C(=O)O)n4)CC3)nc(C(=O)O)c2)cc1", "note": "[[161Tb]Tb-pepa-pic2-C-Hex-KuE, metal not drawn]", "values": [{"measurement": "Blood", "setting": "[1]", "result": "0.45 ± 0.06", "unit": "% ID/g"}, {"measurement": "Bone", "setting": "[1]", "result": "0.24 ± 0.03", "unit": "% ID/g"}, {"measurement": "Heart", "setting": "[1]", "result": "0.21 ± 0.03", "unit": "% ID/g"}, {"measurement": "Kidney", "setting": "[1]", "result": "17.89 ± 2.70", "unit": "% ID/g"}, {"measurement": "Large Intestine", "setting": "[1]", "result": "0.98 ± 1.44", "unit": "% ID/g"}, {"measurement": "Liver", "setting": "[1]", "result": "0.64 ± 0.09", "unit": "% ID/g"}, {"measurement": "Lungs", "setting": "[1]", "result": "0.50 ± 0.07", "unit": "% ID/g"}, {"measurement": "Muscle", "setting": "[1]", "result": "0.11 ± 0.03", "unit": "% ID/g"}, {"measurement": "Small Intestine", "setting": "[1]", "result": "0.33 ± 0.37", "unit": "% ID/g"}, {"measurement": "Spleen", "setting": "[1]", "result": "0.50 ± 0.09", "unit": "% ID/g"}, {"measurement": "Tumor +", "setting": "[1]; PSMA+ tumor", "result": "7.33 ± 1.59", "unit": "% ID/g"}, {"measurement": "tissue uptake at 2 h", "setting": "in vivo; PSMA- tumor, Tumor -", "result": "0.7 ± 1.59", "unit": "%ID/g"}]}
{"molecule": "COCCOCCOCCOc1ccc(C#Cc2cc(CN3CCN(Cc4cccc(C(=O)O)n4)CCN(Cc4cc(SC[C@H](N)C(=O)NCCCCCC(=O)NCCCC[C@H](NC(=O)N[C@@H](CCC(=O)O)C(=O)O)C(=O)O)cc(C(=O)O)n4)CC3)nc(C(=O)O)c2)cc1", "note": "[[177Lu]Lu-pepa-pic2-C-Hex-KuE, metal not drawn]", "values": [{"measurement": "tissue uptake at 2 h", "setting": "in vivo; PSMA+ tumor, Tumor +, PSMA+ tumor", "result": "4.57 ± 0.9", "unit": "%ID/g"}, {"measurement": "tissue uptake at 2 h", "setting": "in vivo; blood", "result": "0.3 ± 0.1", "unit": "%ID/g"}, {"measurement": "tissue uptake at 2 h", "setting": "in vivo; bone", "result": "0.25 ± 0.02", "unit": "%ID/g"}, {"measurement": "tissue uptake at 2 h", "setting": "in vivo; heart", "result": "0.19 ± 0.07", "unit": "%ID/g"}, {"measurement": "tissue uptake at 2 h", "setting": "in vivo; kidney", "result": "25.9 ± 8.51", "unit": "%ID/g"}, {"measurement": "tissue uptake at 2 h", "setting": "in vivo; large intestine", "result": "0.49 ± 0.27", "unit": "%ID/g"}, {"measurement": "tissue uptake at 2 h", "setting": "in vivo; liver", "result": "0.5 ± 0.05", "unit": "%ID/g"}, {"measurement": "tissue uptake at 2 h", "setting": "in vivo; lungs", "result": "0.47 ± 0.26", "unit": "%ID/g"}, {"measurement": "tissue uptake at 2 h", "setting": "in vivo; muscle", "result": "0.11 ± 0.05", "unit": "%ID/g"}, {"measurement": "tissue uptake at 2 h", "setting": "in vivo; small intestine", "result": "0.33 ± 0.27", "unit": "%ID/g"}, {"measurement": "tissue uptake at 2 h", "setting": "in vivo; spleen", "result": "0.53 ± 0.24", "unit": "%ID/g"}, {"measurement": "uptake of activity in the PSMA-expressing tumor", "setting": "[2]", "result": "persistent, statistically significant uptake"}]}
{"molecule": "PSMA-617", "values": [{"measurement": "ε277", "setting": "[3]", "result": 4268, "unit": "M⁻¹ cm⁻¹"}]}
